Three molecules from publication PMC9244803, “Development and Optimization of Bifunctional Fusion Proteins to Locally Modulate Complement Activation in Diseased Tissue” (Frontiers in Immunology, 2022) can be followed below.

For test [1], the target named is T1, Human C3d crystallised with Fab(3d8b) (human, UniProt P01024).
T1 construct: human C3d as in PDB 7UE9 chain C
Nature of the test: crystal structure; Fab(3d8b):C3d complex, sitting-drop vapor diffusion at 20°C, PEG, pH 7.0 to 8.5; 1.75 Å; PDB 7UE9. The note with it: both partners purified.

The target of test [2] is T2, C3d deposited in the kidneys of CfH^-/- mice (mouse (endogenous in CfH^-/- mouse …, UniProt P01027)).
T2 construct: C3d-containing fragments of mouse complement C3 deposited in renal glomeruli; source: endogenous, kidney glomeruli of CfH^-/- mice
T2 sequence (P01027 1002-1303): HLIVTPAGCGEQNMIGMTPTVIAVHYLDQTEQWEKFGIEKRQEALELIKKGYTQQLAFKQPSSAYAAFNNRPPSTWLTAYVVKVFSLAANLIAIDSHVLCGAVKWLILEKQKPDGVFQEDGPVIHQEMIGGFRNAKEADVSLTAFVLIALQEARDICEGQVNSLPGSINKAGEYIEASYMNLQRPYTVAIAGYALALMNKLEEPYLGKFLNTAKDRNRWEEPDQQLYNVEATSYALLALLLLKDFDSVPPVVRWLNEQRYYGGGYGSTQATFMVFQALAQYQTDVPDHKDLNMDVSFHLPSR
Briefly: immunostaining of cells or tissue; proteins injected into CfH^-/- mice; frozen kidney sections taken 7 or 14 days post-dose and stained with anti-Crry or anti-human IgG4. The note with it: one partner purified.

T1 sequence (P01024 1002-1303): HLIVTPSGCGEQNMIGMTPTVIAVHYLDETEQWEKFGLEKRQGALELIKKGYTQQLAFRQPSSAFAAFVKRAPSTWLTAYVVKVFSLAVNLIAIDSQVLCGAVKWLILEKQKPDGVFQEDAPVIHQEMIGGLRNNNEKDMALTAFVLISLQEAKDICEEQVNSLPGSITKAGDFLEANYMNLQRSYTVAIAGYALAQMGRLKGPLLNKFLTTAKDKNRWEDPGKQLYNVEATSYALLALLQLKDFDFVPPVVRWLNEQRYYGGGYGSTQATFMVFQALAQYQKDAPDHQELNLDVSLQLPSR

B1: humanized Fab(3d8b) (Fab, V domains shown)
VH: QVQLVQSGAEVKKPGASVKVSCKASGYTFTNYYINWVRQAPGQGLEWMGVINPYSGGTSYNQKFKGRVTMTVDTSTSTAYMELSSLRSEDTAVYFCSSPYWGQGTLVTVSS
VL: DVVMTQSPLSLPVTLGQPASISCKSSQSLLDSDGKTYLNWFQQRPGQSPRRLIYLVSKLDSGVPDRFSGSGSGTDFTLKISRVEAEDVGVYYCWQGTHFPRTFGGGTKVEIK
notes: heavy chain (H) of PDB 7UE9; light chain (L) of PDB 7UE9; CDRs of mouse clone 3d8b grafted onto a human framework; solved with an IgG4-derived Fab (PDB 5DK3) as search model; also called 3d8b Fab
Turning to B1, the binding result in test [1] is listed as “binds”.

B2: humanized C3d mAb (CDRs of 3d8b grafted onto human IgG4 S228P, L235E) (antibody, V domains shown)
VH: QVQLVQSGAEVKKPGASVKVSCKASGYTFTNYYINWVRQAPGQGLEWMGVINPYSGGTSYNQKFKGRVTMTVDTSTSTAYMELSSLRSEDTAVYFCSSPYWGQGTLVTVSS
VL: DVVMTQSPLSLPVTLGQPASISCKSSQSLLDSDGKTYLNWFQQRPGQSPRRLIYLVSKLDSGVPDRFSGSGSGTDFTLKISRVEAEDVGVYYCWQGTHFPRTFGGGTKVEIK
notes: humanised heavy variable region with the CDRs of 3d8b; as the variable region of the heavy chain of m3 (PDB 7UE9 chain H); human IgG4 heavy constant region, hinge stabilized and Fc-mutated; humanised light chain with the CDRs of 3d8b; as the light chain of m3 (PDB 7UE9 chain L); IgG4; source: CHO cells, transient, purified (Protein A or IMAC, SEC)
Turning to B2, the binding result in test [2] is on record as “binds”.

B3: humanized C3d mAb-CR1_(1-10) (antibody, V domains shown)
VH: QVQLVQSGAEVKKPGASVKVSCKASGYTFTNYYINWVRQAPGQGLEWMGVINPYSGGTSYNQKFKGRVTMTVDTSTSTAYMELSSLRSEDTAVYFCSSPYWGQGTLVTVSS
VL: DVVMTQSPLSLPVTLGQPASISCKSSQSLLDSDGKTYLNWFQQRPGQSPRRLIYLVSKLDSGVPDRFSGSGSGTDFTLKISRVEAEDVGVYYCWQGTHFPRTFGGGTKVEIK
notes: humanised heavy variable region with the CDRs of 3d8b; as the variable region of the heavy chain of m3 (PDB 7UE9 chain H); human IgG4 heavy constant region, hinge stabilized and Fc-mutated; (Gly4Ser)2 linker; human complement receptor type 1 (CR1), the first 10 consensus repeats; humanised light chain with the CDRs of 3d8b; as the light chain of m3 (PDB 7UE9 chain L); also called lead fusion …
Regarding B3, in test [2], the binding result is “binds”.
